Biological target: the molecule itself
Test: AUC

| Protein | binding result | stoichiometry N |
| --- | --- | --- |
| Y137C COA7 pathogenic variant, recombinant, GST-free (natural protein, human) GPLGSMAGMVDFQDEEQVKSFLENMEVECNYHCYHEKDPDGCYRLVDYLEGIRKNFDEAAKVLKFNCEENQHSDSCYKLGAYYVTGKGGLTQDLKAAARCFLMACEKPGKKSIAACHNVGLLAHDGQVNEDGQPDLGKARDCYTRACDGGYTSSCFNLSAMFLQGAPGFPKDMDLACKYSMKACDLGHIWACANASRMYKLGDGVDKDEAKAEVLKNRAQQLHKEQQKGVQPLTFG | binds |  |
| Cytochrome c oxidase assembly factor 7 (COA7), recombinant, GST-free (natural protein, human) GPLGSMAGMVDFQDEEQVKSFLENMEVECNYHCYHEKDPDGCYRLVDYLEGIRKNFDEAAKVLKFNCEENQHSDSCYKLGAYYVTGKGGLTQDLKAAARCFLMACEKPGKKSIAACHNVGLLAHDGQVNEDGQPDLGKARDYYTRACDGGYTSSCFNLSAMFLQGAPGFPKDMDLACKYSMKACDLGHIWACANASRMYKLGDGVDKDEAKAEVLKNRAQQLHKEQQKGVQPLTFG |  | 2 |

Reference: publication doi:10.1101/2021.06.10.447992 (bioRxiv, 2021)
